Experimental data from US20230357348A1 (AstraZeneca / MedImmune, published 2023).
Starred links: 1 amine or outer side, 2 acyl side, 3 side chain; linkers in the order of their positions; H or OH if unused. Non-standard residues stand in square brackets, D forms with d. Groups on a side chain read outwards from the residue. No end group written: not given here. *: point of attachment. C20 diacid = O=C(O)CCCCCCCCCCCCCCCCCCC(=O)*; C18 diacid = O=C(O)CCCCCCCCCCCCCCCCC(=O)*; γGlu = O=C(O)[C@H](CCC(=O)[*:2])N[*:1]; αMeF = C[C@](N)(Cc1ccccc1)C(=O)O; AEEA = NCCOCCOCC(=O)O; Aib = CC(C)(N)C(=O)O

B1: Peptide 4 (peptide)
peptide: HSQGS[αMeF]TSDVSK[αMeF]LDSK([AEEA-AEEA-γGlu-C18 diacid])AAQDFVQWIANT-NH2
modifications: N-terminus assumed
SMILES: CC[C@H](C)[C@H](NC(=O)[C@H](Cc1c[nH]c2ccccc12)NC(=O)[C@H](CCC(N)=O)NC(=O)[C@@H](NC(=O)[C@H](Cc1ccccc1)NC(=O)[C@H](CC(=O)O)NC(=O)[C@H](CCC(N)=O)NC(=O)[C@H](C)NC(=O)[C@H](C)NC(=O)[C@H](CCCCNC(=O)COCCOCCNC(=O)COCCOCCNC(=O)CC[C@H](NC(=O)CCCCCCCCCCCCCCCCC(=O)O)C(=O)O)NC(=O)[C@H](CO)NC(=O)[C@H](CC(=O)O)NC(=O)[C@H](CC(C)C)NC(=O)[C@](C)(Cc1ccccc1)NC(=O)[C@H](CCCCN)NC(=O)[C@H](CO)NC(=O)[C@@H](NC(=O)[C@H](CC(=O)O)NC(=O)[C@H](CO)NC(=O)[C@@H](NC(=O)[C@](C)(Cc1ccccc1)NC(=O)[C@H](CO)NC(=O)CNC(=O)[C@H](CCC(N)=O)NC(=O)[C@H](CO)NC(=O)[C@@H](N)Cc1c[nH]cn1)[C@@H](C)O)C(C)C)C(C)C)C(=O)N[C@@H](C)C(=O)N[C@@H](CC(N)=O)C(=O)N[C@H](C(N)=O)[C@@H](C)O
B2: Peptide 150 (peptide)
peptide: H[Aib]QGTFTSDVSK[αMeF]LDSK([AEEA-AEEA-γGlu-C18 diacid])RAQDFVQWLL[Aib]TE-OH
modifications: N-terminus assumed
SMILES: CC(C)C[C@H](NC(=O)[C@H](Cc1c[nH]c2ccccc12)NC(=O)[C@H](CCC(N)=O)NC(=O)[C@@H](NC(=O)[C@H](Cc1ccccc1)NC(=O)[C@H](CC(=O)O)NC(=O)[C@H](CCC(N)=O)NC(=O)[C@H](C)NC(=O)[C@H](CCCNC(=N)N)NC(=O)[C@H](CCCCNC(=O)COCCOCCNC(=O)COCCOCCNC(=O)CC[C@H](NC(=O)CCCCCCCCCCCCCCCCC(=O)O)C(=O)O)NC(=O)[C@H](CO)NC(=O)[C@H](CC(=O)O)NC(=O)[C@H](CC(C)C)NC(=O)[C@](C)(Cc1ccccc1)NC(=O)[C@H](CCCCN)NC(=O)[C@H](CO)NC(=O)[C@@H](NC(=O)[C@H](CC(=O)O)NC(=O)[C@H](CO)NC(=O)[C@@H](NC(=O)[C@H](Cc1ccccc1)NC(=O)[C@@H](NC(=O)CNC(=O)[C@H](CCC(N)=O)NC(=O)C(C)(C)NC(=O)[C@@H](N)Cc1c[nH]cn1)[C@@H](C)O)[C@@H](C)O)C(C)C)C(C)C)C(=O)N[C@@H](CC(C)C)C(=O)NC(C)(C)C(=O)N[C@H](C(=O)N[C@@H](CCC(=O)O)C(=O)O)[C@@H](C)O
B3: Peptide 151 (peptide)
peptide: H[Aib]QGTFTSDVSK[αMeF]LDSK([AEEA-AEEA-γGlu-C20 diacid])RAQDFVRWLL[Aib]TE-OH
modifications: N-terminus assumed
SMILES: CC(C)C[C@H](NC(=O)[C@H](Cc1c[nH]c2ccccc12)NC(=O)[C@H](CCCNC(=N)N)NC(=O)[C@@H](NC(=O)[C@H](Cc1ccccc1)NC(=O)[C@H](CC(=O)O)NC(=O)[C@H](CCC(N)=O)NC(=O)[C@H](C)NC(=O)[C@H](CCCNC(=N)N)NC(=O)[C@H](CCCCNC(=O)COCCOCCNC(=O)COCCOCCNC(=O)CC[C@H](NC(=O)CCCCCCCCCCCCCCCCCCC(=O)O)C(=O)O)NC(=O)[C@H](CO)NC(=O)[C@H](CC(=O)O)NC(=O)[C@H](CC(C)C)NC(=O)[C@](C)(Cc1ccccc1)NC(=O)[C@H](CCCCN)NC(=O)[C@H](CO)NC(=O)[C@@H](NC(=O)[C@H](CC(=O)O)NC(=O)[C@H](CO)NC(=O)[C@@H](NC(=O)[C@H](Cc1ccccc1)NC(=O)[C@@H](NC(=O)CNC(=O)[C@H](CCC(N)=O)NC(=O)C(C)(C)NC(=O)[C@@H](N)Cc1c[nH]cn1)[C@@H](C)O)[C@@H](C)O)C(C)C)C(C)C)C(=O)N[C@@H](CC(C)C)C(=O)NC(C)(C)C(=O)N[C@H](C(=O)N[C@@H](CCC(=O)O)C(=O)O)[C@@H](C)O
B4: Peptide 152 (peptide)
peptide: H[Aib]QGTFTSDVSK[αMeF]LDSK([AEEA-AEEA-γGlu-C18 diacid])RAQDFVRWLL[Aib]E-OH
modifications: N-terminus assumed
SMILES: CC(C)C[C@H](NC(=O)[C@H](Cc1c[nH]c2ccccc12)NC(=O)[C@H](CCCNC(=N)N)NC(=O)[C@@H](NC(=O)[C@H](Cc1ccccc1)NC(=O)[C@H](CC(=O)O)NC(=O)[C@H](CCC(N)=O)NC(=O)[C@H](C)NC(=O)[C@H](CCCNC(=N)N)NC(=O)[C@H](CCCCNC(=O)COCCOCCNC(=O)COCCOCCNC(=O)CC[C@H](NC(=O)CCCCCCCCCCCCCCCCC(=O)O)C(=O)O)NC(=O)[C@H](CO)NC(=O)[C@H](CC(=O)O)NC(=O)[C@H](CC(C)C)NC(=O)[C@](C)(Cc1ccccc1)NC(=O)[C@H](CCCCN)NC(=O)[C@H](CO)NC(=O)[C@@H](NC(=O)[C@H](CC(=O)O)NC(=O)[C@H](CO)NC(=O)[C@@H](NC(=O)[C@H](Cc1ccccc1)NC(=O)[C@@H](NC(=O)CNC(=O)[C@H](CCC(N)=O)NC(=O)C(C)(C)NC(=O)[C@@H](N)Cc1c[nH]cn1)[C@@H](C)O)[C@@H](C)O)C(C)C)C(C)C)C(=O)N[C@@H](CC(C)C)C(=O)NC(C)(C)C(=O)N[C@@H](CCC(=O)O)C(=O)O
B5: Peptide 39 (peptide)
peptide: H[Aib]QGTFTSDVSK[αMeF]LDSK([AEEA-AEEA-γGlu-C18 diacid])RAQDFVRWLL[Aib]TE-OH
modifications: N-terminus assumed
SMILES: CC(C)C[C@H](NC(=O)[C@H](Cc1c[nH]c2ccccc12)NC(=O)[C@H](CCCNC(=N)N)NC(=O)[C@@H](NC(=O)[C@H](Cc1ccccc1)NC(=O)[C@H](CC(=O)O)NC(=O)[C@H](CCC(N)=O)NC(=O)[C@H](C)NC(=O)[C@H](CCCNC(=N)N)NC(=O)[C@H](CCCCNC(=O)COCCOCCNC(=O)COCCOCCNC(=O)CC[C@H](NC(=O)CCCCCCCCCCCCCCCCC(=O)O)C(=O)O)NC(=O)[C@H](CO)NC(=O)[C@H](CC(=O)O)NC(=O)[C@H](CC(C)C)NC(=O)[C@](C)(Cc1ccccc1)NC(=O)[C@H](CCCCN)NC(=O)[C@H](CO)NC(=O)[C@@H](NC(=O)[C@H](CC(=O)O)NC(=O)[C@H](CO)NC(=O)[C@@H](NC(=O)[C@H](Cc1ccccc1)NC(=O)[C@@H](NC(=O)CNC(=O)[C@H](CCC(N)=O)NC(=O)C(C)(C)NC(=O)[C@@H](N)Cc1c[nH]cn1)[C@@H](C)O)[C@@H](C)O)C(C)C)C(C)C)C(=O)N[C@@H](CC(C)C)C(=O)NC(C)(C)C(=O)N[C@H](C(=O)N[C@@H](CCC(=O)O)C(=O)O)[C@@H](C)O
B6: Peptide 168 (peptide)
peptide: H[Aib]QGTFTSDVSK[αMeF]LDSK([AEEA-AEEA-γGlu-C18 diacid])RARDFVAWLL[Aib]TE-OH
modifications: N-terminus assumed
SMILES: CC(C)C[C@H](NC(=O)[C@H](Cc1c[nH]c2ccccc12)NC(=O)[C@H](C)NC(=O)[C@@H](NC(=O)[C@H](Cc1ccccc1)NC(=O)[C@H](CC(=O)O)NC(=O)[C@H](CCCNC(=N)N)NC(=O)[C@H](C)NC(=O)[C@H](CCCNC(=N)N)NC(=O)[C@H](CCCCNC(=O)COCCOCCNC(=O)COCCOCCNC(=O)CC[C@H](NC(=O)CCCCCCCCCCCCCCCCC(=O)O)C(=O)O)NC(=O)[C@H](CO)NC(=O)[C@H](CC(=O)O)NC(=O)[C@H](CC(C)C)NC(=O)[C@](C)(Cc1ccccc1)NC(=O)[C@H](CCCCN)NC(=O)[C@H](CO)NC(=O)[C@@H](NC(=O)[C@H](CC(=O)O)NC(=O)[C@H](CO)NC(=O)[C@@H](NC(=O)[C@H](Cc1ccccc1)NC(=O)[C@@H](NC(=O)CNC(=O)[C@H](CCC(N)=O)NC(=O)C(C)(C)NC(=O)[C@@H](N)Cc1c[nH]cn1)[C@@H](C)O)[C@@H](C)O)C(C)C)C(C)C)C(=O)N[C@@H](CC(C)C)C(=O)NC(C)(C)C(=O)N[C@H](C(=O)N[C@@H](CCC(=O)O)C(=O)O)[C@@H](C)O
B7: Peptide 140 (peptide)
peptide: H[Aib]QGTFTSDVSK[αMeF]LDTK([AEEA-AEEA-γGlu-C18 diacid])RAQDFVRWLLE[Aib]G-OH
modifications: N-terminus assumed
SMILES: CC(C)C[C@H](NC(=O)[C@H](Cc1c[nH]c2ccccc12)NC(=O)[C@H](CCCNC(=N)N)NC(=O)[C@@H](NC(=O)[C@H](Cc1ccccc1)NC(=O)[C@H](CC(=O)O)NC(=O)[C@H](CCC(N)=O)NC(=O)[C@H](C)NC(=O)[C@H](CCCNC(=N)N)NC(=O)[C@H](CCCCNC(=O)COCCOCCNC(=O)COCCOCCNC(=O)CC[C@H](NC(=O)CCCCCCCCCCCCCCCCC(=O)O)C(=O)O)NC(=O)[C@@H](NC(=O)[C@H](CC(=O)O)NC(=O)[C@H](CC(C)C)NC(=O)[C@](C)(Cc1ccccc1)NC(=O)[C@H](CCCCN)NC(=O)[C@H](CO)NC(=O)[C@@H](NC(=O)[C@H](CC(=O)O)NC(=O)[C@H](CO)NC(=O)[C@@H](NC(=O)[C@H](Cc1ccccc1)NC(=O)[C@@H](NC(=O)CNC(=O)[C@H](CCC(N)=O)NC(=O)C(C)(C)NC(=O)[C@@H](N)Cc1c[nH]cn1)[C@@H](C)O)[C@@H](C)O)C(C)C)[C@@H](C)O)C(C)C)C(=O)N[C@@H](CC(C)C)C(=O)N[C@@H](CCC(=O)O)C(=O)NC(C)(C)C(=O)NCC(=O)O

Tests used:
Assay in all cases: cell-based or functional assay
[1] = molecular target: human GLP-1 receptor (hGLP-1R) (human, UniProt P43220 24-463)
[2] = molecular target: human glucagon receptor (hGCGR) (human, UniProt P47871 26-477)
Target sequence in this assay (P47871 26-477): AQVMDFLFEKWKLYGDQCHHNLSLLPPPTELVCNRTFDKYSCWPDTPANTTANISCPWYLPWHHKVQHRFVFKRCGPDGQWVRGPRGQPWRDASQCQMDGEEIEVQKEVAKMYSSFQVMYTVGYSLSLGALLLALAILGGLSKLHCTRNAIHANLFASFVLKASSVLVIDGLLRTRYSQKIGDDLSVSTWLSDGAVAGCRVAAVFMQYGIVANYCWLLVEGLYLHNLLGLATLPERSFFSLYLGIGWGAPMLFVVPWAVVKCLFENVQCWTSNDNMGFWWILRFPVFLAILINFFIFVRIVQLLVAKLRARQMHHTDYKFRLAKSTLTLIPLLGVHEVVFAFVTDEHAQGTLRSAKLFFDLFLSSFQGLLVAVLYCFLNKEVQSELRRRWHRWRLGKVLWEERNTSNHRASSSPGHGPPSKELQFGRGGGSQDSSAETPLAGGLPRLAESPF

[3] = molecular target: human GLP-1 receptor (hGLP-1R) (human, UniProt P43220 24-463); remark: listed apart in the source
[4] = molecular target: human glucagon receptor (hGCGR) (human, UniProt P47871 26-477); remark: listed apart in the source
Target sequence in this assay (P47871 26-477): as above

Row | Binder | hGLP-1R EC50 (pM) [1] [pM] | hGluc-R EC50 (pM) [2] [pM] | hGLP-1R EC50 (pM) [3] [pM] | hGluc-R EC50 (pM) [4] [pM]
1 | B1 | 240 | 1170 |  | 
2 | B2 | 166 | 355 |  | 
3 | B3 | 111 | 178 |  | 
4 | B4 | 11.9 | 20.4 |  | 
5 | B5 |  |  | 76.1 | 194
6 | B6 |  |  | 448 | 886
7 | B7 | 22.7 |  |  | 
